Measured values reported in patent US20060040325A1.

Experiments:
[1] = molecular target: FcγRIIIA (soluble receptor used as analyte in the BIAcore runs) (human) (UniProt P08637); assay: SPR (BIAcore 3000), IgG amine-coupled to CM5, soluble FcγRIIIA injected; Scatchard plot of Req; Run 2
[2] = molecular target: FcγRIIIA (soluble receptor used as analyte in the BIAcore runs) (human) (UniProt P08637); assay: SPR (BIAcore 3000), IgG amine-coupled to CM5, soluble FcγRIIIA injected; steady-state isotherm; Run 2
[3] = molecular target: FcγRIIB-streptavidin fusion protein (tetramer) (human; Streptomyces avidinii) (UniProt P31994); assay: ELISA: antibody at varied concentration captured on protein A/G, FcγRIIB-streptavidin, biotin-HRP, OD at 450 nm
Chain of FcγRIIB-streptavidin fusion protein (tetramer) (human; Streptomyces avidinii) (P31994 43-217 limits assumed): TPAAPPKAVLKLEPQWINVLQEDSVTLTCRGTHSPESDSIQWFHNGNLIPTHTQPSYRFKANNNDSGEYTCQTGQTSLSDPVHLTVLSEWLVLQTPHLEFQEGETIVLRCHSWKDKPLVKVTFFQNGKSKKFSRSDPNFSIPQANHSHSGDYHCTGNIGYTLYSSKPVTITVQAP

[4] = molecular target: FcγRIIIA (soluble receptor used as analyte in the BIAcore runs) (human) (UniProt P08637); assay: SPR (BIAcore 3000), IgG amine-coupled to CM5, soluble FcγRIIIA injected; Scatchard plot of Req; Run 1
[5] = molecular target: FcγRIIIA (soluble receptor used as analyte in the BIAcore runs) (human) (UniProt P08637); assay: SPR (BIAcore 3000), IgG amine-coupled to CM5, soluble FcγRIIIA injected; steady-state isotherm; Run 1

Chain of FcγRIIIA (soluble receptor used as analyte in the BIAcore runs) (human) (P08637 17-208): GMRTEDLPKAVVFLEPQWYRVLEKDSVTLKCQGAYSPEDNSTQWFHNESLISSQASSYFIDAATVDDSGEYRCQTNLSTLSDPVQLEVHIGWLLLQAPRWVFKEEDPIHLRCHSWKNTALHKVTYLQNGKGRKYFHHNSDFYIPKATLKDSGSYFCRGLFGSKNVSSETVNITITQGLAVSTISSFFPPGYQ

| Substance | Kd [1] [nM] | Kd [2] [nM] | EC50 (read off the curve) [3] [µg/mL] | Kd [4] [nM] | Kd [5] [nM] |
| --- | --- | --- | --- | --- | --- |
| Vitaxin® (wild type, full length IgG1) (antibody) | 7600 | 8900 | 0.3 | 3260 | 3470 |
| Vitaxin®-1M (Vitaxin® Fc variant I332E, IgG1) (antibody) | 1220 | 1280 | 0.3 | 458 | 458 |
| Vitaxin®-3M (Vitaxin® Fc variant S239D/A330L/I332E, IgG1) (antibody) |  | 114 |  |  |  |
